Test results from article PMC5832153.

Target: FliC-aGFP_ENH_V2 (Salmonella) (UniProt P06179)
Assay: ITC; sfGFP (0.065 mM) injected in 10 μl portions into FliC-aGFP_ENH in the cell; 25 °C; 20 mM Tris-HCl, 150 mM NaCl, pH 8.5; one-binding-site model

UniProt P06179, sequence (P06179 whole entry): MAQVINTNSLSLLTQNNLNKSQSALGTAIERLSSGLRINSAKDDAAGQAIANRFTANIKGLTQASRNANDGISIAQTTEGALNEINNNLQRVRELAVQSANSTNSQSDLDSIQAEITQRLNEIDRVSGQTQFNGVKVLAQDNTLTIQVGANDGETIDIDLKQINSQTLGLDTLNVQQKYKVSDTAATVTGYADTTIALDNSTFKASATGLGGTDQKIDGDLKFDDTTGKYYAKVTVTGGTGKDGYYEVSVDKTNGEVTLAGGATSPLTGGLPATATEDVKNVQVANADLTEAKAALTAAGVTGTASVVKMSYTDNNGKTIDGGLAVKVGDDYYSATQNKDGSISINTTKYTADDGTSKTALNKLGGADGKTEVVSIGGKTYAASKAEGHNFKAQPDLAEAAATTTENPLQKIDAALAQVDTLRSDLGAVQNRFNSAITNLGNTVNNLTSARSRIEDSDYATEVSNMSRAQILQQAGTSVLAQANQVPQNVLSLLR

C-terminally His-tagged superfolder GFP (from UniProt P42212 1-238) (natural protein)
Kd: 1.1 nM
dH: -9.3 kcal/mol
stoichiometry N: 0.86
